Where two headings read alike, the source gives them in different places.
What was measured:
HLA-A*3101 (human) [1] = biological target: HLA-A*3101 (human)
HLA-A*3301 (human) [2] = biological target: HLA-A*3301 (human)
HLA-A*0301 (human) [3] = biological target: HLA-A*0301 (human)
HLA-A*1101 (human) [4] = biological target: HLA-A*1101 (human)
HLA-A*6801 (human) [5] = biological target: HLA-A*6801 (human)
HLA-A*6801 (human) [6] = assay: competition with 125I-labeled probe peptide for purified HLA, gel filtration
HLA-A*3101 (human) [7] = assay: as above
HLA-A*1101 (human) [8] = assay: as above
HLA-A*3301 (human) [9] = assay: as above
HLA-A*0301 (human) [10] = assay: as above
HLA-A*1101 (human) [11] = biological target: HLA-A*1101 (human); remark: listed apart in the source
HLA-A*1101 (Human) [12] = biological target: HLA-A*1101 (Human)

“[…] (Pf LSA 1631, 10-mer A03 supermotif peptide) (peptide; other documents disagree on this pair)” showed a binding affinity ratio (IC50 of standard peptide / IC50 of test peptide) (HLA-A*3101 (human) [1]) of 0.0086 and a binding affinity ratio (IC50 of standard peptide / IC50 of test peptide) (HLA-A*3301 (human) [2]) of 0.0011.

Substance “[…] (Pf LSA 1830, 10-mer A03 supermotif peptide) (peptide; other documents disagree on this pair)” has a binding affinity ratio (IC50 of standard peptide / IC50 of test peptide) (HLA-A*0301 (human) [3]) of 0.0004.

In the case of “[…] (LSA position 1703, 9-mer) (peptide; other documents disagree on this pair)”, the binding affinity ratio (IC50 of standard peptide / IC50 of test peptide) (HLA-A*1101 (human) [4]) is reported as 0.0027.

Work on “[…] (LSA position 1183, 10-mer) (peptide; other documents disagree on this pair)” yielded a binding affinity ratio (IC50 of standard peptide / IC50 of test peptide) (HLA-A*1101 (human) [4]) of 0.0002.

“[…] (LSA position 1703, 10-mer) (peptide; other documents disagree on this pair)” was tested, and the binding affinity ratio (IC50 of standard peptide / IC50 of test peptide) (HLA-A*1101 (human) [4]) was 0.0002.

For “[…] (Pf LSA 1693, 9-mer A03 supermotif peptide) (peptide; other documents disagree on this pair)”, the binding affinity ratio (IC50 of standard peptide / IC50 of test peptide) (HLA-A*6801 (human) [5]) was 0.0054.

Work on “[…] (P. falciparum LSA, position 1713, 10 amino acids) (peptide; other documents disagree on this pair)” yielded a binding affinity ratio (relative to standard peptide) (HLA-A*6801 (human) [6]) of 0.0046, a binding affinity ratio (relative to standard peptide) (HLA-A*3101 (human) [7]) of 0.0009 and a binding affinity ratio (relative to standard peptide) (HLA-A*1101 (human) [8]) of 0.0002. The binding affinity ratio (relative to standard peptide) (HLA-A*3301 (human) [9]) was 0.0055.

Substance “[…] (P. falciparum LSA, position 1660, 10 amino acids) (peptide; other documents disagree on this pair)” has a binding affinity ratio (relative to standard peptide) (HLA-A*0301 (human) [10]) of 0.0001, a binding affinity ratio (relative to standard peptide) (HLA-A*6801 (human) [6]) of 0.0029 and a binding affinity ratio (relative to standard peptide) (HLA-A*3101 (human) [7]) of 0.0009. For the same substance, the binding affinity ratio (relative to standard peptide) (HLA-A*1101 (human) [8]) was 0.0002 and the binding affinity ratio (relative to standard peptide) (HLA-A*3301 (human) [9]) was 0.0008.

Substance “[…] (Pf LSA 1854, 9-mer A03 supermotif peptide) (peptide; other documents disagree on this pair)” has a binding affinity ratio (IC50 of standard peptide / IC50 of test peptide) (HLA-A*1101 (human) [11]) of 0.034.

“[…] (LSA position 1750, 10-mer) (peptide; other documents disagree on this pair)” was tested, and the binding affinity ratio (IC50 of standard peptide / IC50 of test peptide) (HLA-A*1101 (human) [4]) was 0.0002.

Substance “[…] (P. falciparum EXP-1, position 80, 9 amino acids) (peptide; other documents disagree on this pair)” has a binding affinity ratio (IC50 of standard peptide / IC50 of test peptide) (HLA-A*0201 (Human)) of 0.021.

With “[…] (Pf LSA 1825, 10-mer A03 supermotif peptide) (peptide; other documents disagree on this pair)” the binding affinity ratio (IC50 of standard peptide / IC50 of test peptide) (HLA-A*1101 (human) [11]) was 0.0009.

Work on “[…] (EXP position 84, 9 amino acids) (peptide; other documents disagree on this pair)” yielded a binding affinity ratio (IC50 of standard peptide / IC50 of test peptide) (HLA-A*0201 (Human)) of 0.035.

With “[…] (Pf LSA 68, 9-mer A03 supermotif peptide) (peptide; other documents disagree on this pair)” the binding affinity ratio (IC50 of standard peptide / IC50 of test peptide) (HLA-A*0301 (human) [3]) was 0.0028 and the binding affinity ratio (IC50 of standard peptide / IC50 of test peptide) (HLA-A*1101 (human) [11]) was 0.0038.

In the case of “[…] (LSA position 40, 10-mer) (peptide; other documents disagree on this pair)”, the binding affinity ratio (IC50 of standard peptide / IC50 of test peptide) (HLA-A*1101 (human) [4]) is reported as 0.0002.

With “[…] (P. falciparum LSA, position 1388, 9 amino acids) (peptide; other documents disagree on this pair)” the binding affinity ratio (relative to standard peptide) (HLA-A*0301 (human) [10]) was 0.0001 and the binding affinity ratio (relative to standard peptide) (HLA-A*1101 (human) [8]) was 0.0002.

With “[…] (P. falciparum LSA, position 1676, 9-mer) (peptide; other documents disagree on this pair)” the binding affinity ratio (IC50 of standard peptide / IC50 of test peptide) (HLA-A*1101 (human) [4]) was 0.0013.

Substance “[…] (Pf LSA 1704, 9-mer A03 supermotif peptide) (peptide; other documents disagree on this pair)” has a binding affinity ratio (IC50 of standard peptide / IC50 of test peptide) (HLA-A*6801 (human) [5]) of 0.32, a binding affinity ratio (IC50 of standard peptide / IC50 of test peptide) (HLA-A*3101 (human) [1]) of 0.0025 and a binding affinity ratio (IC50 of standard peptide / IC50 of test peptide) (HLA-A*1101 (human) [11]) of 0.0007. It also gave a binding affinity ratio (IC50 of standard peptide / IC50 of test peptide) (HLA-A*3301 (human) [2]) of 0.0043.

In the case of “[…] (EXP position 83, 10 amino acids) (peptide; other documents disagree on this pair)”, the binding affinity ratio (IC50 of standard peptide / IC50 of test peptide) (HLA-A*0201 (Human)) is reported as 0.038.

Work on “[…] (LSA, position 1854, 10 amino acids) (peptide; other documents disagree on this pair)” yielded a binding affinity ratio (IC50 of standard peptide / IC50 of test peptide) (HLA-A*1101 (Human) [12]) of 0.049.

With “[…] (LSA, position 1704, 9 amino acids) (peptide; other documents disagree on this pair)” the binding affinity ratio (IC50 of standard peptide / IC50 of test peptide) (HLA-A*1101 (Human) [12]) was 0.0007.

In the case of “[…] (LSA, position 1825, 10 amino acids) (peptide; other documents disagree on this pair)”, the binding affinity ratio (IC50 of standard peptide / IC50 of test peptide) (HLA-A*1101 (Human) [12]) is reported as 0.0009.

“[…] (LSA position 1591, 10-mer) (peptide; other documents disagree on this pair)” gave a binding affinity ratio (IC50 of standard peptide / IC50 of test peptide) (HLA-A*1101 (human) [4]) of 0.0002.

Work on “[…] (LSA position 520, 10-mer) (peptide; other documents disagree on this pair)” yielded a binding affinity ratio (IC50 of standard peptide / IC50 of test peptide) (HLA-A*1101 (human) [4]) of 0.0002.

Work on “[…] (LSA, position 1834, 10 amino acids) (peptide; other documents disagree on this pair)” yielded a binding affinity ratio (IC50 of standard peptide / IC50 of test peptide) (HLA-A*1101 (Human) [12]) of 0.0007.

“[…] (Pf LSA 16, 9-mer A03 supermotif peptide) (peptide; other documents disagree on this pair)” was tested, and the binding affinity ratio (IC50 of standard peptide / IC50 of test peptide) (HLA-A*0301 (human) [3]) was 0.026 and the binding affinity ratio (IC50 of standard peptide / IC50 of test peptide) (HLA-A*1101 (human) [11]) was 0.01.

“[…] (LSA, position 68, 9 amino acids) (peptide; other documents disagree on this pair)” showed a binding affinity ratio (IC50 of standard peptide / IC50 of test peptide) (HLA-A*1101 (Human) [12]) of 0.0038.

Substance “[…] (P. falciparum LSA, position 1626, 10 amino acids) (peptide; other documents disagree on this pair)” has a binding affinity ratio (relative to standard peptide) (HLA-A*0301 (human) [10]) of 0.0001 and a binding affinity ratio (relative to standard peptide) (HLA-A*1101 (human) [8]) of 0.0002.

For “[…] (LSA position 49, 10-mer) (peptide; other documents disagree on this pair)”, the binding affinity ratio (IC50 of standard peptide / IC50 of test peptide) (HLA-A*1101 (human) [4]) was 0.0018.

“[…] (LSA position 1855, 10-mer) (peptide; other documents disagree on this pair)” gave a binding affinity ratio (IC50 of standard peptide / IC50 of test peptide) (HLA-A*1101 (human) [4]) of 0.0045.

In the case of “[…] (Pf LSA 1834, 10-mer A03 supermotif peptide) (peptide; other documents disagree on this pair)”, the binding affinity ratio (IC50 of standard peptide / IC50 of test peptide) (HLA-A*0301 (human) [3]) is reported as 0.0081, the binding affinity ratio (IC50 of standard peptide / IC50 of test peptide) (HLA-A*3101 (human) [1]) is reported as 0.0042 and the binding affinity ratio (IC50 of standard peptide / IC50 of test peptide) (HLA-A*1101 (human) [11]) is reported as 0.0007. For the same substance, the binding affinity ratio (IC50 of standard peptide / IC50 of test peptide) (HLA-A*3301 (human) [2]) was 0.0009.

Work on “[…] (LSA position 1726, 10-mer) (peptide; other documents disagree on this pair)” yielded a binding affinity ratio (IC50 of standard peptide / IC50 of test peptide) (HLA-A*1101 (human) [4]) of 0.0002.

For “[…] (Pf LSA 61, 10-mer A03 supermotif peptide) (peptide; other documents disagree on this pair)”, the binding affinity ratio (IC50 of standard peptide / IC50 of test peptide) (HLA-A*0301 (human) [3]) was 0.0004.

“[…] (P. falciparum LSA, position 1575, 9 amino acids) (peptide; other documents disagree on this pair)” showed a binding affinity ratio (relative to standard peptide) (HLA-A*0301 (human) [10]) of 0.0001 and a binding affinity ratio (relative to standard peptide) (HLA-A*1101 (human) [8]) of 0.0002.

With “[…] (Pf LSA position 1751, 9-mer) (peptide; other documents disagree on this pair)” the binding affinity ratio (IC50 of standard peptide / IC50 of test peptide) (HLA-A*1101 (human) [4]) was 0.0018.

For “[…] (LSA position 1574, 10-mer) (peptide; other documents disagree on this pair)”, the binding affinity ratio (IC50 of standard peptide / IC50 of test peptide) (HLA-A*1101 (human) [4]) was 0.0002.

Substance “[…] (P. falciparum EXP-1, position 79, 10 amino acids) (peptide; other documents disagree on this pair)” has a binding affinity ratio (IC50 of standard peptide / IC50 of test peptide) (HLA-A*0201 (Human)) of 0.0022.

With “[…] (P. falciparum SSP2, position 31, 9 amino acids) (peptide; other documents disagree on this pair)” the binding affinity ratio (relative to standard peptide) (HLA-A*0301 (human) [3]) was 0.0005 and the binding affinity ratio (relative to standard peptide) (HLA-A*1101 (human) [11]) was 0.0002.

With “[…] (EXP position 84, 10 amino acids) (peptide; other documents disagree on this pair)” the binding affinity ratio (IC50 of standard peptide / IC50 of test peptide) (HLA-A*0201 (Human)) was 0.0059.

Substance “[…] (LSA position 49, 9-mer) (peptide; other documents disagree on this pair)” has a binding affinity ratio (IC50 of standard peptide / IC50 of test peptide) (HLA-A*1101 (human) [4]) of 0.037.

“[…] (LSA position 1387, 10-mer) (peptide; other documents disagree on this pair)” showed a binding affinity ratio (IC50 of standard peptide / IC50 of test peptide) (HLA-A*1101 (human) [4]) of 0.0002.

Work on “[…] (LSA position 41, 9-mer) (peptide; other documents disagree on this pair)” yielded a binding affinity ratio (IC50 of standard peptide / IC50 of test peptide) (HLA-A*1101 (human) [4]) of 0.003.

With “[…] (P. falciparum LSA, position 1609, 9 amino acids) (peptide; other documents disagree on this pair)” the binding affinity ratio (relative to standard peptide) (HLA-A*0301 (human) [10]) was 0.0001 and the binding affinity ratio (relative to standard peptide) (HLA-A*1101 (human) [8]) was 0.0002.

“[…] (LSA, position 1854, 9 amino acids) (peptide; other documents disagree on this pair)” gave a binding affinity ratio (IC50 of standard peptide / IC50 of test peptide) (HLA-A*1101 (Human) [12]) of 0.034.

Work on “[…] (Pf LSA 1854, 10-mer A03 supermotif peptide) (peptide; other documents disagree on this pair)” yielded a binding affinity ratio (IC50 of standard peptide / IC50 of test peptide) (HLA-A*1101 (human) [11]) of 0.049.
